Data reported in patent US20230248800A1.

Target: human V1a receptor (human) (UniProt P37288)
Test: cell-based or functional assay

human V1a receptor (human), sequence (P37288 whole entry): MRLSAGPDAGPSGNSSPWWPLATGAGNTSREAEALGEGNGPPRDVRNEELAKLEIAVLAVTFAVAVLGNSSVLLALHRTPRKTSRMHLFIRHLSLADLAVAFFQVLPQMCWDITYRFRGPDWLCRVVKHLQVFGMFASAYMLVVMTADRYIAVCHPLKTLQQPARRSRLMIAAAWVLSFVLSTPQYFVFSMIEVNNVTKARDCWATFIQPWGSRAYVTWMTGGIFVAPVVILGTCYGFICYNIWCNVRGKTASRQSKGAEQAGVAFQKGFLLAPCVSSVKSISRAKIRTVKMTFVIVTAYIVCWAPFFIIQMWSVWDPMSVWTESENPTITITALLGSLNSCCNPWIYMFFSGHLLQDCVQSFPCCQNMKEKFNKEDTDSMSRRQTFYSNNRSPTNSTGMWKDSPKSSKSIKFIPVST

Estimated V1a EC50 (calcium flux): 1.65 nM
V1a Highest agonist effect (% of AVP): 92.1 % of AVP
Substance: Lysine vasopressin (LVP) (from UniProt P01183 20-28) (peptide)
